B1: Forkhead box protein P3 (Homo sapiens), Q9BZS1 (parent)
chain: MPNPRPGKPSAPSLALGPSPGASPSWRAAPKASDLLGARGPGGTFQGRDLRGGAHASSSSLNPMPPSQLQLPTLPLVMVAPSGARLGPLPHLQALLQDRPHFMHQLSTVDAHARTPVLQVHPLESPAMISLTPPTTATGVFSLKARPGLPPGINVASLEWVSREPALLCTFPNPSAPRKDSTLSAVPQSSYPLLANGVCKWPGCEKVFEEPEDFLKHCQADHLLDEKGRAQCLLQREMVQSLEQQLVLEKEKLSAMQAHLAGKMALTKASSVASSDKGSCCIVAAGSQGPVVPAWSGPREAPDSLFAVRRHLWGSHGNSTFPEFLHNMDYFKFHNMRPPFTYATLIRWAILEAPEKQRTLNEIYHWFTRMFAFFRNHPATWKNAIRHNLSLHKCFVRVESEKGAVWTVDELEFRKKRSQRPSRCSNPTPGP
B2: Adiponectin (Homo sapiens), Q15848 (parent)
chain: MLLLGAVLLLLALPGHDQETTTQGPGVLLPLPKGACTGWMAGIPGHPGHNGAPGRDGRDGTPGEKGEKGDPGLIGPKGDIGETGVPGAEGPRGFPGIQGRKGEPGEGAYVYRSAFSVGLETYVTIPNMPIRFTKIFYNQQNHYDGSTGKFHCNIPGLYYFAYHITVYMKDVKVSLFKKDKAMLFTYDQYQENNVDQASGSVLLHLEVGDQVWLQVYGEGERNGLYADNDNDSTFTGFLLYHDTN
B3: Neuromedin-B (Homo sapiens), P08949-2 (parent)
chain: MARRAGGARMFGSLLLFALLAAGVAPLSWDLPEPRSRASKIRVHSRGNLWATGHFMGKKSLEPSSPSPLGTAPHTSLRDQRLQLSHDLLGILLLKKALGVSLSRPAPQIQEAAGTNTAEMTPIMGQTQQRGLDCAHPGKVLNGTLLMAPSGCKS
B4: CD151 antigen (Homo sapiens), P48509 (parent)
chain: MGEFNEKKTTCGTVCLKYLLFTYNCCFWLAGLAVMAVGIWTLALKSDYISLLASGTYLATAYILVVAGTVVMVTGVLGCCATFKERRNLLRLYFILLLIIFLLEIIAGILAYAYYQQLNTELKENLKDTMTKRYHQPGHEAVTSAVDQLQQEFHCCGSNNSQDWRDSEWIRSQEAGGRVVPDSCCKTVVALCGQRDHASNIYKVEGGCITKLETFIQEHLRVIGAVGIGIACVQVFGMIFTCCLYRSLKLEHY
B5: Basal cell adhesion molecule (Homo sapiens), P50895 (parent)
chain: MEPPDAPAQARGAPRLLLLAVLLAAHPDAQAEVRLSVPPLVEVMRGKSVILDCTPTGTHDHYMLEWFLTDRSGARPRLASAEMQGSELQVTMHDTRGRSPPYQLDSQGRLVLAEAQVGDERDYVCVVRAGAAGTAEATARLNVFAKPEATEVSPNKGTLSVMEDSAQEIATCNSRNGNPAPKITWYRNGQRLEVPVEMNPEGYMTSRTVREASGLLSLTSTLYLRLRKDDRDASFHCAAHYSLPEGRHGRLDSPTFHLTLHYPTEHVQFWVGSPSTPAGWVREGDTVQLLCRGDGSPSPEYTLFRLQDEQEEVLNVNLEGNLTLEGVTRGQSGTYGCRVEDYDAADDVQLSKTLELRVAYLDPLELSEGKVLSLPLNSSAVVNCSVHGLPTPALRWTKDSTPLGDGPMLSLSSITFDSNGTYVCEASLPTVPVLSRTQNFTLLVQGSPELKTAEIEPKADGSWREGDEVTLICSARGHPDPKLSWSQLGGSPAEPIPGRQGWVSSSLTLKVTSALSRDGISCEASNPHGNKRHVFHFGTVSPQTSQAGVAVMAVAVSVGLLLLVVAVFYCVRRKGGPCCRQRREKGAPPPGEPGLSHSGSEQPEQTGLLMGGASGGARGGSGGFGDEC
partner: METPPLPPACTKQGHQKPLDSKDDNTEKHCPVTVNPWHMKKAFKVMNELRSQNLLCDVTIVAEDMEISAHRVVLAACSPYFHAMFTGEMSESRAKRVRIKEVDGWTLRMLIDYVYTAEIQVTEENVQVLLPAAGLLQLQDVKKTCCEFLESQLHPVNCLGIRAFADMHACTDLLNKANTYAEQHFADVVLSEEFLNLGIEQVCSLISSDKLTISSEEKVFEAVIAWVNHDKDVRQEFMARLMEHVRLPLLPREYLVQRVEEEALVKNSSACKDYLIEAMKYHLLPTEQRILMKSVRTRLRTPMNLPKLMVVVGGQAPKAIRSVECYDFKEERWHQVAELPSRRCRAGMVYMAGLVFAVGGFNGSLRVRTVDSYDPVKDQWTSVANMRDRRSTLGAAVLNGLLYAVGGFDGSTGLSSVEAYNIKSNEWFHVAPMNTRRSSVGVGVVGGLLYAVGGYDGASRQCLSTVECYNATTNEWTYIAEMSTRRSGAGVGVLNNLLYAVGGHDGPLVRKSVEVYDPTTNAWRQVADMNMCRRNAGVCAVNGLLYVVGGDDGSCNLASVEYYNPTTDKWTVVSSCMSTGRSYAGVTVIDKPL
B6: ATP synthase mitochondrial F1 complex assembly factor 2 (Homo sapiens), Q8N5M1 (parent)
chain: MWRSCLRLRDGGRRLLNRPAGGPSASMSPGPTIPSPARAYAPPTERKRFYQNVSITQGEGGFEINLDHRKLKTPQAKLFTVPSEALAIAVATEWDSQQDTIKYYTMHLTTLCNTSLDNPTQRNKDQLIRAAVKFLDTDTICYRVEEPETLVELQRNEWDPIIEWAEKRYGVEISSSTSIMGPSIPAKTREVLVSHLASYNTWALQGIEFVAAQLKSMVLTLGLIDLRLTVEQAVLLSRLEEEYQIQKWGNIEWAHDYELQELRARTAAGTLFIHLCSESTTVKHKLLKE
partner: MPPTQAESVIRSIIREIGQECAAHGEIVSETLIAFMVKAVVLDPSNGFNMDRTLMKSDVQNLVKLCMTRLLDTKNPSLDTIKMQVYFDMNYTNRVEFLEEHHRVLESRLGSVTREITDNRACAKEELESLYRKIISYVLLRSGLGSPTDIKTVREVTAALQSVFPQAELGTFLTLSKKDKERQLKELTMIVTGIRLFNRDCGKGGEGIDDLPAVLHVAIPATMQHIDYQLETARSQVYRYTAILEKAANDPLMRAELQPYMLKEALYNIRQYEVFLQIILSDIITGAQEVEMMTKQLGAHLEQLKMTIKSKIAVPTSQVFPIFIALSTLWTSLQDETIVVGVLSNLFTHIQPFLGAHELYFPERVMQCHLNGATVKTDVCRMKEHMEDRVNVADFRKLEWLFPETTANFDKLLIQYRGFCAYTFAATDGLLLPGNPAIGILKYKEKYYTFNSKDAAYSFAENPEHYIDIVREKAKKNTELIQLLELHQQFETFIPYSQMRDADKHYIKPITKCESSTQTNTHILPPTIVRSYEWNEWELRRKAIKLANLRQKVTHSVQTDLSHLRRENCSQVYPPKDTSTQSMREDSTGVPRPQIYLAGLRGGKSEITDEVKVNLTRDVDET
B7: U4/U6 small nuclear ribonucleoprotein Prp31 (Homo sapiens), Q8WWY3 (parent)
chain: MSLADELLADLEEAAEEEEGGSYGEEEEEPAIEDVQEETQLDLSGDSVKTIAKLWDSKMFAEIMMKIEEYISKQAKASEVMGPVEAAPEYRVIVDANNLTVEIENELNIIHKFIRDKYSKRFPELESLVPNALDYIRTVKELGNSLDKCKNNENLQQILTNATIMVVSVTASTTQGQQLSEEELERLEEACDMALELNASKHRIYEYVESRMSFIAPNLSIIIGASTAAKIMGVAGGLTNLSKMPACNIMLLGAQRKTLSGFSSTSVLPHTGYIYHSDIVQSLPPDLRRKAARLVAAKCTLAARVDSFHESTEGKVGYELKDEIERKFDKWQEPPPVKQVKPLPAPLDGQRKKRGGRRYRKMKERLGLTEIRKQANRMSFGEIEEDAYQEDLGFSLGHLGKSGSGRVRQTQVNEATKARISKTLQRTLQKQSVVYGGKSTIRDRSSGTASSVAFTPLQGLEIVNPQAAEKKVAEANQKYFSSMAEFLKVKGEKSGLMST
partner: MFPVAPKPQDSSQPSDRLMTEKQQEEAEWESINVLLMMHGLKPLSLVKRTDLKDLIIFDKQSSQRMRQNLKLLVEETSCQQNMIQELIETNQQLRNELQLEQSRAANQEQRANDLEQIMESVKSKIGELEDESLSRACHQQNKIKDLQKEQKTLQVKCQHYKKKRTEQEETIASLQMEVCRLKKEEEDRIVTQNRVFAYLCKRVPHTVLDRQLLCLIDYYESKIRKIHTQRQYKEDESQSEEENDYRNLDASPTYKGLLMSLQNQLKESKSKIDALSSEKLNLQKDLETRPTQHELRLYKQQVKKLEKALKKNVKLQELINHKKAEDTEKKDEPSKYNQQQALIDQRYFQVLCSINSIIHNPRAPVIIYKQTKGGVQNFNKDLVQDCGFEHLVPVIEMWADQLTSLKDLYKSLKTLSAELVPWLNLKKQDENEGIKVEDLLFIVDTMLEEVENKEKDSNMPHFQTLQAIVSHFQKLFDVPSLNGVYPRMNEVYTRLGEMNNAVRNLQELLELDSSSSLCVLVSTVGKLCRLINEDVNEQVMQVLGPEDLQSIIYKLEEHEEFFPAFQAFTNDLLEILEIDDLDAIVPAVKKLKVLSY
B8: Multifunctional procollagen lysine hydroxylase and glycosyltransferase LH3 (Homo sapiens), O60568 (parent)
chain: MTSSGPGPRFLLLLPLLLPPAASASDRPRGRDPVNPEKLLVITVATAETEGYLRFLRSAEFFNYTVRTLGLGEEWRGGDVARTVGGGQKVRWLKKEMEKYADREDMIIMFVDSYDVILAGSPTELLKKFVQSGSRLLFSAESFCWPEWGLAEQYPEVGTGKRFLNSGGFIGFATTIHQIVRQWKYKDDDDDQLFYTRLYLDPGLREKLSLNLDHKSRIFQNLNGALDEVVLKFDRNRVRIRNVAYDTLPIVVHGNGPTKLQLNYLGNYVPNGWTPEGGCGFCNQDRRTLPGGQPPPRVFLAVFVEQPTPFLPRFLQRLLLLDYPPDRVTLFLHNNEVFHEPHIADSWPQLQDHFSAVKLVGPEEALSPGEARDMAMDLCRQDPECEFYFSLDADAVLTNLQTLRILIEENRKVIAPMLSRHGKLWSNFWGALSPDEYYARSEDYVELVQRKRVGVWNVPYISQAYVIRGDTLRMELPQRDVFSGSDTDPDMAFCKSFRDKGIFLHLSNQHEFGRLLATSRYDTEHLHPDLWQIFDNPVDWKEQYIHENYSRALEGEGIVEQPCPDVYWFPLLSEQMCDELVAEMEHYGQWSGGRHEDSRLAGGYENVPTVDIHMKQVGYEDQWLQLLRTYVGPMTESLFPGYHTKARAVMNFVVRYRPDEQPSLRPHHDSSTFTLNVALNHKGLDYEGGGCRFLRYDCVISSPRKGWALLHPGRLTHYHEGLPTTWGTRYIMVSFVDP
B9: PiggyBac transposable element-derived protein 1 (Homo sapiens), Q96JS3 (parent)
chain: MYEALPGPAPENEDGLVKVKEEDPTWEQVCNSQEGSSHTQEICRLRFRHFCYQEAHGPQEALAQLRELCHQWLRPEMHTKEQIMELLVLEQFLTILPKELQPCVKTYPLESGEEAVTVLENLETGSGDTGQQASVYIQGQDMHPMVAEYQGVSLECQSLQLLPGITTLKCEPPQRPQGNPQEVSGPVPHGSAHLQEKNPRDKAVVPVFNPVRSQTLVKTEEETAQAVAAEKWSHLSLTRRNLCGNSAQETVMSLSPMTEEIVTKDRLFKAKQETSEEMEQSGEASGKPNRECAPQIPCSTPIATERTVAHLNTLKDRHPGDLWARMHISSLEYAAGDITRKGRKKDKARVSELLQGLSFSGDSDVEKDNEPEIQPAQKKLKVSCFPEKSWTKRDIKPNFPSWSALDSGLLNLKSEKLNPVELFELFFDDETFNLIVNETNNYASQKNVSLEVTVQEMRCVFGVLLLSGFMRHPRREMYWEVSDTDQNLVRDAIRRDRFELIFSNLHFADNGHLDQKDKFTKLRPLIKQMNKNFLLYAPLEEYYCFDKSMCECFDSDQFLNGKPIRIGYKIWCGTTTQGYLVWFEPYQEESTMKVDEDPDLGLGGNLVMNFADVLLERGQYPYHLCFDSFFTSVKLLSALKKKGVRATGTIRENRTEKCPLMNVEHMKKMKRGYFDFRIEENNEIILCRWYGDGIISLCSNAVGIEPVNEVSCCDADNEEIPQISQPSIVKVYDECKEGVAKMDQIISKYRVRIRSKKWYSILVSYMIDVAMNNAWQLHRACNPGASLDPLDFRRFVAHFYLEHNAHLSD

Variants of: B1
Conditions: with RBPMS

effect of a mutation on the interaction | Variant
with no effect | P187L
with no effect | G52V

Variants of: B1
Conditions: with pr20e_human PRR20E

effect of a mutation on the interaction | Variant
with no effect | P187L
with no effect | G52V

Variants of: B2
Conditions: with bni3l_human BNIP3L

effect of a mutation on the interaction | Variant
with no effect | Y111H
with no effect | I164T

Variants of: B2
Conditions: with sgta_human SGTA

effect of a mutation on the interaction | Variant
with no effect | Y111H
with no effect | I164T

Variants of: B3
Conditions: with birc2_human BIRC2, Q13490
birc2_human BIRC2, Q13490, sequence (Q13490 whole entry): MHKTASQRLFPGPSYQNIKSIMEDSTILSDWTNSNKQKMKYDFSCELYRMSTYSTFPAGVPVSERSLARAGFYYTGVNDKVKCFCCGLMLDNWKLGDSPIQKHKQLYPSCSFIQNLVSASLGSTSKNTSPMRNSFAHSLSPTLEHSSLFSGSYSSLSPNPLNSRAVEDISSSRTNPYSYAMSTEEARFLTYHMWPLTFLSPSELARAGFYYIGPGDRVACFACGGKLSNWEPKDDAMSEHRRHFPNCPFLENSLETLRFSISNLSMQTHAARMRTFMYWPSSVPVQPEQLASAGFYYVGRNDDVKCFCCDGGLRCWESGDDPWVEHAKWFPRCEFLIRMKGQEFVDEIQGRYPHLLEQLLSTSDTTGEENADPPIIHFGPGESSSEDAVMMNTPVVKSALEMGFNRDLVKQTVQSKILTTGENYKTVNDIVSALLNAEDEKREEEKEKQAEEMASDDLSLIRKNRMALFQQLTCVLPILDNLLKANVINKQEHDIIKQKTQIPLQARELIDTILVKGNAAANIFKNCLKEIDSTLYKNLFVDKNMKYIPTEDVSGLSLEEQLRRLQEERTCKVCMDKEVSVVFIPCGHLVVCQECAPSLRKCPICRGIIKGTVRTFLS

effect of a mutation on the interaction | Variant
with no effect | M120I

Variants of: B4
Conditions: with astrc_human GRAMD1C

effect of a mutation on the interaction | Variant
with no effect | R178H
disrupting interaction strength | R171C

Variants of: B5
Conditions: with klhl2_human KLHL2, O95198

Variant | effect of a mutation on the interaction
R175Q | with no effect
T539A | with no effect

The next lines start with the values.

effect of a mutation on the interaction | Variant
with no effect | S447L
with no effect | R77H

Variants of: B6
Conditions: with cf206_human CFAP206, Q8IYR0

effect of a mutation on the interaction | Variant
disrupting interaction strength | W94R

Variants of: B7
Conditions: with cep70_human CEP70, Q8NHQ1

effect of a mutation on the interaction | Variant
with no effect | L107V

Variants of: B8
Conditions: with ehmt2_human EHMT2, Q96KQ7
ehmt2_human EHMT2, Q96KQ7, sequence (Q96KQ7 whole entry): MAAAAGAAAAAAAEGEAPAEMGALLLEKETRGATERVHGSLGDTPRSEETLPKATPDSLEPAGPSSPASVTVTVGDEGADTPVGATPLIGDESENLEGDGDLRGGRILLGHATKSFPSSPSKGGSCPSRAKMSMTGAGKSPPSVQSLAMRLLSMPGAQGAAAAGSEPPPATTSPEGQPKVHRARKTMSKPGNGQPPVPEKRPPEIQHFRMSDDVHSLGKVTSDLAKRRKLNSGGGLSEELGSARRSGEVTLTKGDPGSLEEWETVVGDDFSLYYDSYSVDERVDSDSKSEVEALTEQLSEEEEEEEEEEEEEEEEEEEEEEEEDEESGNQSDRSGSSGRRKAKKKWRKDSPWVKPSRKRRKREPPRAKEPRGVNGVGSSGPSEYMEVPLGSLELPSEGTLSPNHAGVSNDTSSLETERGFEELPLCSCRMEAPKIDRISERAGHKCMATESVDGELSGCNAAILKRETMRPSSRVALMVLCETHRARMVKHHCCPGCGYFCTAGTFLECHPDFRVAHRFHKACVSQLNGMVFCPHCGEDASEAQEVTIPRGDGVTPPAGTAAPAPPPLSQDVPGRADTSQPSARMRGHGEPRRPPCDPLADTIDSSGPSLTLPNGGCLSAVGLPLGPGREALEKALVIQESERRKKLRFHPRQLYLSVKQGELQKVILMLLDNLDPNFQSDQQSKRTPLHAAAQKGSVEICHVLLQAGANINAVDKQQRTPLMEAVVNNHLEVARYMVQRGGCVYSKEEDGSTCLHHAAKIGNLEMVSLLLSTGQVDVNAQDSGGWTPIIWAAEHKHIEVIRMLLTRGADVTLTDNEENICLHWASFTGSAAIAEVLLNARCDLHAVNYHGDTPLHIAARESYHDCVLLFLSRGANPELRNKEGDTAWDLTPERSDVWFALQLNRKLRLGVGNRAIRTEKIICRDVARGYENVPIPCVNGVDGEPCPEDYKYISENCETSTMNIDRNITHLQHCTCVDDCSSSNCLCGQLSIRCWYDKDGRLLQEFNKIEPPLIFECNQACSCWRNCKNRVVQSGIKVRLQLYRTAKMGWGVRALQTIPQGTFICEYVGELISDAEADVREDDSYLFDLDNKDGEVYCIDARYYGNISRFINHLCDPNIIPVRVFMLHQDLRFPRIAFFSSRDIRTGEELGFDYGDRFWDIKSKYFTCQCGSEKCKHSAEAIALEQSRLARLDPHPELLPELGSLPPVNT

effect of a mutation on the interaction | Variant
with no effect | N223S

Variants of: B9
Conditions: with NR4A1, P22736-2
NR4A1, P22736-2, sequence (P22736 other isoform, or with tags, fused parts or gaps): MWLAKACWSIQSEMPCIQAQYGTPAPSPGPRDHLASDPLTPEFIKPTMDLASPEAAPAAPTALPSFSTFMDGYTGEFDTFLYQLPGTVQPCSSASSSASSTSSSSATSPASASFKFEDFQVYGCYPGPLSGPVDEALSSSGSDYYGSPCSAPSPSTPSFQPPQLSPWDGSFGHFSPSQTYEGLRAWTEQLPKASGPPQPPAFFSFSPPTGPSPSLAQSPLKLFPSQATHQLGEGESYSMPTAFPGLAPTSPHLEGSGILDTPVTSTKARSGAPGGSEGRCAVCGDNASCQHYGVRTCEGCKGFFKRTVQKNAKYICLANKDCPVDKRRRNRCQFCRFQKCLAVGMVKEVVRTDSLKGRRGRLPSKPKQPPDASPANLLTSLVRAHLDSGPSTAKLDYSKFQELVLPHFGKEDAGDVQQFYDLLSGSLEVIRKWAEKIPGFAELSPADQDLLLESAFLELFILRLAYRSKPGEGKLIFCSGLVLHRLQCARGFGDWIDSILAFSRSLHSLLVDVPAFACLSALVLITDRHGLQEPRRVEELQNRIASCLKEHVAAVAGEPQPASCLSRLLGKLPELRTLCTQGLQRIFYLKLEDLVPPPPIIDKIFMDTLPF

effect of a mutation on the interaction | Variant
with no effect | Q248E

Variants of: B9
Conditions: with znf24_human ZNF24, P17028
znf24_human ZNF24, P17028, sequence (P17028 whole entry): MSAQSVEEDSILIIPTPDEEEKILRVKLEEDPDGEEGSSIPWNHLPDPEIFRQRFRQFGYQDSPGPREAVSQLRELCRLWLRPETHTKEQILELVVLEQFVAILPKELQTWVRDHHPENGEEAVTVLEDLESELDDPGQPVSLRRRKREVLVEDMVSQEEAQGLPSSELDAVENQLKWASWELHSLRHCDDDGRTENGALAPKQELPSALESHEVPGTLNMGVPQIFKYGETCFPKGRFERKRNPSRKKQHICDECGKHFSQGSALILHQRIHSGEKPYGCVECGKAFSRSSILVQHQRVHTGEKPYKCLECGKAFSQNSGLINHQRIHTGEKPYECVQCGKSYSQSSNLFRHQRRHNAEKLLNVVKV

effect of a mutation on the interaction | Variant
with no effect | Q248E

Variants of: B9
Conditions: with zn496_human ZNF496, Q96IT1
zn496_human ZNF496, Q96IT1, sequence (Q96IT1 whole entry): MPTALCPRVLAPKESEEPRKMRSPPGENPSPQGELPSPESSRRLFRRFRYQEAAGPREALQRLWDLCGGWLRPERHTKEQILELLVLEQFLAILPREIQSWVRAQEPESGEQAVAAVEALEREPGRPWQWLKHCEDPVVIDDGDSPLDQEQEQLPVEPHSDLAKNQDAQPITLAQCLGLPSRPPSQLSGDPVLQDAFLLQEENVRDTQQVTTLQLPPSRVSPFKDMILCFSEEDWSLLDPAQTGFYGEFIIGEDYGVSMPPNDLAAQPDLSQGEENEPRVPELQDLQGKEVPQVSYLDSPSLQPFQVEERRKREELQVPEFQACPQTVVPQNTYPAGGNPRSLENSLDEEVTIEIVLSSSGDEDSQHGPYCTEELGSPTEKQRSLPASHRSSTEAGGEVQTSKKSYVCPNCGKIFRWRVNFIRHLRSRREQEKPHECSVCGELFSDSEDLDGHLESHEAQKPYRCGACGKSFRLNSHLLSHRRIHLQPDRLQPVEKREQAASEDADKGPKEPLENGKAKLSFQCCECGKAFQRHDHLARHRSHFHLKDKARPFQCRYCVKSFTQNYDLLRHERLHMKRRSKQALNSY

effect of a mutation on the interaction | Variant
with no effect | Q248E

Variants of: B9
Conditions: with zsc22_human ZSCAN22, P10073
zsc22_human ZSCAN22, P10073, sequence (P10073 whole entry): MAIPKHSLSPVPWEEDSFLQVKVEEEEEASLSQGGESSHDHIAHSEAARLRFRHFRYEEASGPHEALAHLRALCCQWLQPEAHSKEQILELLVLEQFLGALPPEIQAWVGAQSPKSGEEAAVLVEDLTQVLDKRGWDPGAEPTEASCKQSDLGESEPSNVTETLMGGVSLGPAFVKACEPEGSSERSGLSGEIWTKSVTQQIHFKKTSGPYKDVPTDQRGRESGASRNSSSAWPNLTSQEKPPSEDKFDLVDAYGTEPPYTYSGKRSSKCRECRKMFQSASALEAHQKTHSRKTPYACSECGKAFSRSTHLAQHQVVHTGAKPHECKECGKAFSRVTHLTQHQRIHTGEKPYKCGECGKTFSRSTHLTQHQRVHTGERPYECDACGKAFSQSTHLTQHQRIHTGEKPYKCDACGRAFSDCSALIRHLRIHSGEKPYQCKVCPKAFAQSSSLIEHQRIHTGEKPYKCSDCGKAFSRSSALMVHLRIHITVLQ

effect of a mutation on the interaction | Variant
with no effect | Q248E

Variants of: B9
Conditions: with meox2_human MEOX2, P50222
meox2_human MEOX2, P50222, sequence (P50222 whole entry): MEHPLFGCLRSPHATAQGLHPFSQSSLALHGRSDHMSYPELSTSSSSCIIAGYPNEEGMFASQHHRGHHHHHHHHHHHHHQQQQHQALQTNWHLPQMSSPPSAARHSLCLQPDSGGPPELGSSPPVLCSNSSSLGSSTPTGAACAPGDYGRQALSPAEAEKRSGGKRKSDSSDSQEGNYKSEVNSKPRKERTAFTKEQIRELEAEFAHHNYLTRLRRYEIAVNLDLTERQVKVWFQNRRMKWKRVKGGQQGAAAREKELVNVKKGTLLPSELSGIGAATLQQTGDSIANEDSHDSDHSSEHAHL

effect of a mutation on the interaction | Variant
with no effect | Q248E
